This is an account of results in PMC11325161.

The test addresses SARS-CoV-2 nsp12 wild type (SARS-CoV-2) (UniProt P0DTD1). In words: MST. The note with it: complex.

As to “subcomplex of wt nsp7, wt nsp8 and dsRNA (1:2:1) (from UniProt P0DTD1)”, the EC50 (in general, the concentration that produces a half-maximal response) was determined as 12.6 nM.
